experiment: soluble on expression in E. coli; label from the status in PepcDB or PDB records

Question: For “MSLTEPEDPSRERLKHHFAQRVIHQARQILEIWQRLQRSEWSTTDMSELCEANLRLLRFAERFEQPEHTQLARSISQSLEAVDANRGRLSSNLITDLNRLMQRLSRTGLRHGDQLEQTFLPPLRKPIYVMLQDHDRAERLAKQLEFFGLSAQSLDSIPAFRSSMVERLPAAIVIDVDFCGAGMGLTLAAEAQVGLEQKLPLLFFSLHETDTPTRLAAVRAGGQEFLTGTLEASSLLEKIEVLTCVAQYEPYKVLIIDDSRAQALHTERLLNSAGIVTRTLIEPIQAMAELADFQPDLIILDMYMPACTGTELAKVIRHNDRYVSVPIIYLSAEDDLDKQLDAMSEGGDDFLTKPIKPRHLITTVRNRAARARNLKARMVRDSLTGEGHHHHHH”, which “soluble on expression in E. coli” value is on record?
Answer: not soluble

Question: With “MGACRRIFKNYEPCELTICVTIICEPRSPPKFDHWKISKPGCPPKIISCSKATNNDVNREKRSRRKLVKKRTPSEVIEKLEEQEGSENCENVPFDKPLLHSDSATLICDEVATSRSPFEISTNEVENVDIQSEPRDRHVSITSMESVAGLGEADDQDDVTILKGLEEVHEIEVDKTVIEESIPNQPKGQRFDLLSNGDVTIPAMIMNDVDGPKKKLLVRRKKKSKTPDSPPQYRDYTETSIYMYIEMDKQNVGEFVWDQQCTRIDALVAPIVELDRMTTPEIPLEIELFD” as the sequence, how does the “soluble on expression in E. coli” value read?
Answer: not soluble

Question: With “EAVREMVCEDDLSQTFITDGSLPACDITLEQAQNLARHVWGQGFAPPSFTDEFHVVRQQPLGAEGKHKKVWLQKDGCEFEAMFWRCSEDIPEYIRTVYRPVANEWRNNLELQLYIDYWEAA” as the sequence, how does the “soluble on expression in E. coli” value read?
Answer: not soluble

Question: For “MGSDKIHHHHHHLPSARLSPRLSSPAGCRQTEWSQMPEAFIELRAITKRFSGVCALDALSLTINKGEIHCLAGENGSGKSTVIKVMAGVYQPDGGEILINGAPVRALTPIEAVRRNIQVIYQDFSLFGNLTVAENLALCGELQQKRKLADWKRIRAIGRQALDRLGVDIDLEVDVERLPTSSRQIVAIARALMSDAKLLIMDEPTTALTGREVDALFRIVKDIQAQGIAVLFVSHKMREMLEISERLTVIRNGRTVIDGPTSAFDESAVTRHMTGLDILSEGYAWAGSPEAVPRLEVRGLSLPGAFEDLSLAIRPGEIVGLSGLLGSGRTEFALSLFGMMPPAAGQVLVDGAQIAPRSVQDAIAEGITYVPEDRLTEGLFLTQSIDRNILATSYERLAPRGVIDRAKAAMQSAGMIKAMQIATPTGEKPVGQLSGGNAQRVVLARWLLTDAKVLILNGPTVGVDVGSKAEIHRKIRELASAHGLAVLMISDDVLELVQNTNRIVLMHRGRFVDDLPTATVSEQSINDLLKSFT”, which “soluble on expression in E. coli” value is on record?
Answer: not soluble

Question: With “MGSDKIHHHHHHMKILLHMCCGPCAAYPVEQLRGQGAAVTGYWFNHNIHPYQEYMRRRDTVRAYAEKVRLDVIWRDEYRLEEFLAAVAQNPDDRCFYCYFSRLDAVAAAAAAGGFDAFSSTLLYSRYQKHDAIRDCAERAAERHGVAFHYDDYRRGWQEGIRLSKELGLYRHQYCGCIYSEKERYHPREGAK” as the sequence, how does the “soluble on expression in E. coli” value read?
Answer: not soluble

Question: For “MSLSLDTAREAVQKKPLLYDKGGEEHYNVISAFIKSMRGSDPDGALYWLARMIEAGEDPIFILRRMVILASEDIGNADPRALQVAVTALQGFQLVGMPEGRIIIGQAVTYLATAPKSNASYVGIDAALAEVRKSGALPVPLHIRNAPTRLMKDLGYGTGYRYAHDYAEGYVAQDYLPDQIKGRKYYDPTGHGYEKSIKERMEWLKGKKEGHHHHHH”, which “soluble on expression in E. coli” value is on record?
Answer: not soluble

Question: With “MKWRSRQLSFSSAKWYGDVIWIFDPGIIGAQIDNEGDLKKCFIQTLFHSTGSRQSIRIWWREIMLSLILRIYLDKFLPWISLSIKEVGESSVINFSLWGCLHGTRFRRWYSPFQKLSALAITKKDVISSSWRCFNGMRCN” as the sequence, how does the “soluble on expression in E. coli” value read?
Answer: soluble

Question: With “MFEKVKVSTCFHVTLLKDYIVFYVSNNLNFASRWPRRRRGQRLLPTALRAMMLNPTEALLAEVSKARTSGARITVEEFIPIYKKVEAACGRSTTLKEFQTLLSHFDREGNGQIMLMELKSMLQNGGEKMTNQEARALKPATGLDTIYRNLNFNHKFTLDHSAIGFLRTNQFFDVQMIPVSRFFTVQDPSNALLSYTQKGIDFFEKLGQFSKEKAAIEEEYSTKLRSLAKKYAKKSEEDDEILKSVSYTSSFNSFLQQLDQIATRHQTSAEHIRGGVVSYVASKTCQMRSSRKNAINDLKTINDKLEDQINEMCKSGKCYLKSFKDAENSYQKFYKADKNLEISRLELEKARALANARNEACELAKQDYSALVRKTNAEQKRYHVELLPVIFARLKAVDKECIADMRQVLQKIVSFDDSLADSTEECRKIMQREVGKIDAEGDAQLVLKSVEATIEQPAPFEIEDLGDPKNCDSRTNDSADGSGGKLLKSSPSKNRIIRNFLGILKEKEADEKPEASNNDQLMYTDKSKPAHVRLSCLRSKIRDMEKQLEQAIQGREGITRLQQAYYTNPQHGNPSACTEPLISYAKKIEKLKMDIHNLKEFYAMLEMSVEEGQERSFGGRDTPDTTRSMSGSSTNQSSSKTIEDVLSGEAGNSSSADDSSKNILRQLFTTPKRLISSPKTSKSSTPTPLRRRAEISSPKILRSSFSGAIRKSLSTPDSVKVETAVTVTALFEFAKSSAETMSIEQGEILLVLEHDHGDGWTRTKNCRKHNEESGFVPTSYLQFPQ” as the sequence, how does the “soluble on expression in E. coli” value read?
Answer: soluble

Question: For “MIKLVFRYSPTKTVDGFNELAFGLGDGLPWGRVKKDLQNFKARTEGTIMIMGAKTFQSLPTLLPGRSHIVVCDLARDYPVTKDGDLAHFYITWEQYITYISGGEIQVSSPNAPFETMLDQNSKVSVIGGPALLYAALPYADEVVVSRIVKRHRVNSTVQLDASFLDDISKREMVETHWYKIDEVTTLTESVYK”, which “soluble on expression in E. coli” value is on record?
Answer: soluble

Question: Which “soluble on expression in E. coli” value does the source give for “MAPPEGGEYLHKVTANSMSVNGDVPETVTAALADQRVEGRVCLEAGAGVGNTTAGLLAAGAKRVYAVTNDADHAATVRDRIGDRNADRLAVIEADLRATPLATDSVDLVAAHGLCNVLPPAELAPIAAELTRVAKPDGCLVVDDYAVPPADAAVNRLFALENAAARVVDGRPVLTFYPPAVLVAVFAANGWSVERRKTLLNPVPWTEAHLDAHAEVVREYAAALPDSLGEPLTAMAEDLVAAIGSERTGTMYSLAFRRADA” here?
Answer: not soluble

Question: For “MDELMFFRGMAPDPTSYDRVFKFLIFGGKSVGKKTLLRSFCTEGDNESIWTSLTVDDEKVLIEATVSQKWEEGMSKEHDAIALVFSTTDVYSFEYTLELYNEIQKSTERIPLVFIENKIDIVEDSQMDKGLVEGEMRKKHKRLYRVSALKEFNVMHPFAYLIEKLTRQKKDLNANESVSENSLRL”, which “soluble on expression in E. coli” value is on record?
Answer: not soluble

Question: Which “soluble on expression in E. coli” value does the source give for “MIYTVTLNPSIDYVVQVNSLDLGAVNRAEKDMKFPGGKGINVSRVLHRLGVENVALGFTGGFTGRFIKDVLQTEGVITNFVQVDGDSRINVKIKGQEETELNGQGPSVTNEQFEQLMKQIESMQKGDYVVLAGSVPASIPTTFYESIAAFGAEKGIRVVVDASGSALQHVVKNKPFLIKPNHHELGELFGVEISTAEDILPYGRKLIEQGVEHVIVSMAGDGALLFTAEGIYEATVPKGVVINSVGAGDSLVAGFVGKYEQTKDIEKAFQYGVATGSATAFSADLCEKEKVEELLSQVIVTKR” here?
Answer: not soluble

Question: With “MSQMSPGQARVVDPILSTHARGYRQSTLIGKKLFPVAPVAQYGGKILTFGKEAFRLYNTKRAPGANTKRIDFGYEGDPYSIVPSALEAKVPRELMRDASQVPGIDLGARSVNTVLRIMALAHEHECAQIALDPAKYNADHKVKLVGSARWTSPDSDPTKDVETAKEAIADSIGMEPNRLMLSRKALSACKYHPKLIERVKYTRAESITIDMLKALWEVEEIVVGTARVATGANDSFGDVWGPDVWLGYVSDNPDPSVEEPSFGYTYQIEGHPLVEVPYWDNNAKSWIYGVSDDNTPALSGMLAGYLIEDAGLPAALEHHHHHH” as the sequence, how does the “soluble on expression in E. coli” value read?
Answer: soluble

Question: Which “soluble on expression in E. coli” value does the source give for “MGSDKIHHHHHHMKAYAFGFPKIGEKREFKKALEDFWKGKITEEQFEEEMNKLRMYMVENYRKNVDVIPSNELSYYDFVLDTAVMVGAVPERFGEYRGLSTYFDMARGGKALEMTKFFNTNYHYLVPEIETEEFYLLENKPLEDYLFFKSKGIETAPWVIGPFTFLYLSKRNGEWIRRPNQMEKLLESLVSVYKEVFEKLVENGCKEILVNEPAFVCDLEKAHWDLILNVYRELSEFPLTVFTYYDSVSDYEACVSLPVKRLHFDFVSNEENLKNLEKHGFPEDKKLVAGVINGRQPWKVDLRKVASLVEKLGASAISNSCPLFHLPVTLELENNLPGGLKEKLAFAKEKLEELKMLKDFLEGKTFDLPNVSFEDFAVDLQAVERVRNLPEDSFRREKEYTERDRIQRERLNLPLFPTTTIGSFPQTPEVRKMRSKYRKGEISKEEYEAFIKEQIKKAIELQEEIGLDVLVHGEFERTDMVEFFAEKLNGIATTQNGWVLSYGSRCYRPPIIYGTVTRPEPMTLKEITYAQSLTEKPVKGMLTGPVTIMSWSYYREDIPEREIAYQIALAINEEVKDLEEAGIKIVQIDEPAFREKAPIKKSKWPEYFEWAINAFNLAANARPETQIHAHMCYSDFNEIIEYIHQLEFDVISIEASRSKGEIISAFENFKGWIKQIGVGVWDIHSPAVPSINEMREIVERVLRVLPKELIWINPDCGLKTRNWDEVIPSLRNMVALAKEMREKFES” here?
Answer: not soluble

Question: Which “soluble on expression in E. coli” value does the source give for “MGSDKIHHHHHHMMSRPIILGIVGDSAAGKTTLTRGIAQVLGPENVTLICTDDYHRYDRQQRAEIGITALHPDCNHLDIMQQHLSLLRTGQPILKPVYSHKTGSFEPPQYIKPNKFVIIEGLLGYSTRAARDCYDVKVYLAPPENLRAKWKVKRDTQKRGYTPEQVLAELEKREPDSEQFIRPQRQWSDIVVSFYPPHEDGDETNGHLNVRLVLRPTIPHPDFTSIINLTNGSSVSAIRLGLDRDMSKPVDVLEVDGHATLEQVNKLEHILCSDMPYLSSVCDRESNPELGKIAGTTGETLQSYPLALTQLIITYHMLKATQIYQ” here?
Answer: not soluble

Question: For “MGSDKIHHHHHHIYCSGKLLQTVMAVQLYPDSKTFVDQPMKENQTGKSIMEHFEKRFPVSIEKITKKDVAEFVDEFFDKEGNELDVCDLPDWRPITEQLANIKDASYQAFAQRLHFIWIQLCRQIKPEVKNDPSRFSLIYVPYQFILPGGRFREFYYWDAYWILKGLIASELYSTARMMILNFAHIIETYGFVPNGGRVYYLRRSQPPFFAPMVYEYYLATQDIQLVADLIPVIEKEYTFWSERRTVNVTYEHPDLNETLHMFQYRTEAETPRPESFREDVLSAEHFTTKDRKKQFFKDLGSAAESGWDFSSRWFKNHKDISTIETTNIVPVDLNAFLCYNMNIMQLFYKLTGNPLKHLEWSSRFTNFREAFTKVFYVPARKGWYDYNLRTLTHNTDFFASNAVPLFSQCYDPLNSQIAVDVYNEMQNSGAFSIPGGIPTSMNEETNQQWDFPNGWSPMNHMIIEGLRKSNNPILQQKAFTLAEKWLETNMQTFNVSDEMWEKYNVKEPLGKLATGGEYEVQAGFGWTNGAALDLIFTYSDRLQYNGPILESLVGSQTTSMKSSPDSSTSLPIDITTTITTSSSSSTFGYSNILTLITVFVLYIL”, which “soluble on expression in E. coli” value is on record?
Answer: not soluble

Question: Which “soluble on expression in E. coli” value does the source give for “AAISLDEQWRMIKENQLMMIAHGIASPRLPEASNLWLISLKLWSCESEIIDEQTFRRSFSDPALSHALDQRVCHDFFQQAAKAVASKGLSIALPLSVAGLSSATLVNELLEQLENSPLPARLLHLIIPAEAIFDHAESVQKLRLAGCRIVFSQVGRDLQIFNSLKANMADYLLLDGELCANVQGNLMDEMLITIIQGHAQRLGMKTIAGPVVLPLVMDTLSGIGVDLIYGDVIANAQPLDLLVNRSYFAIN” here?
Answer: not soluble

Question: Which “soluble on expression in E. coli” value does the source give for “MSLGSGTSTQHHFAFQNAERAFKAAALIQRWYRRYVARLEMRRRCTWSIFQSIEYAGQQDQVKLHDFFSYLMDHFIPSSHNDRDFLTRIFTEDRFAQDSEMKKCSDYESIEVPDSYTGPRLSFPLLPDHATALVEAFRLKQQLHARYVLNLLYETKKHLVQLPNINRVSTCYSEEITVCGDLHGQLDDLIFIFYKNGLPSPERSYVFNGDFVDRGKDSVEILMILFAFMLVYPKEFHLNRGNHEDHMVNLRYGFTKEVMNKYKVHGKEILRTLQDVFCWLPLATLIDEKVLILHGGVSDITDLELLDKIERSKIVSTMRSGTQEEWRQVVDILWSDPMAQEGCKANTIRGGGCYFGPDVTQQLLQKYNMQFLIRSHECKPEGYEFCHNRKVLTIFSASNYYEVGSNRGAYVKLGPALTPHIVQYQANKVTHTLTMRQREGHHHHHH” here?
Answer: not soluble

Source: the DeepSol protein solubility set
